Patent publication US20130005646A1 (Novo Nordisk, published 2013)
Starred links: 1 amine or outer side, 2 acyl side, 3 side chain; linkers in the order of their positions; H or OH if unused. Positions of bridges follow the written chain, without caps; N, C: chain ends. *: point of attachment. C20 diacid = O=C(O)CCCCCCCCCCCCCCCCCCC(=O)*; C18 diacid = O=C(O)CCCCCCCCCCCCCCCCC(=O)*; γGlu = O=C(O)[C@H](CCC(=O)[*:2])N[*:1]

T1: human calcitonin (a) receptor (human, UniProt P30988 25-474)
T1 sequence (looked up): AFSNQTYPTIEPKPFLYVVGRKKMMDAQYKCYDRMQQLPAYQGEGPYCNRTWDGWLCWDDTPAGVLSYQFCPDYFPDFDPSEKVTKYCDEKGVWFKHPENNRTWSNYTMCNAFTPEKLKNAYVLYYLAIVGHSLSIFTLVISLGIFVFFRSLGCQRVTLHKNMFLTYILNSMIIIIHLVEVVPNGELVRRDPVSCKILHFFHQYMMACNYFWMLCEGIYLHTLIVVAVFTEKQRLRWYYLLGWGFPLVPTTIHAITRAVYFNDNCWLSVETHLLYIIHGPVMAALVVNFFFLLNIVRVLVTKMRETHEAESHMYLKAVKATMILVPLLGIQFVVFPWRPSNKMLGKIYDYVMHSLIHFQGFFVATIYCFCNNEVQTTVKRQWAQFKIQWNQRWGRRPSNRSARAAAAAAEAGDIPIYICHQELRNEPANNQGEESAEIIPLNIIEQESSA

T2: human amylin 3(a) receptor (human calcitonin receptor + RAMP-3) (human, UniProt P30988 25-474; O60896 24-148)
T2 sequence (looked up) 1: T1 sequence (looked up)
T2 sequence (looked up) 2: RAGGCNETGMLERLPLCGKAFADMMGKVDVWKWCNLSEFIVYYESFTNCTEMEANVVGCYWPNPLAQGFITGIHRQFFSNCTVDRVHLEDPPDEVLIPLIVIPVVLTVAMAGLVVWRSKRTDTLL

B1: N-alpha-[(S)-4-Carboxy-4-(17-carboxyheptadecanoylamino)butyryl]-Glu-[Glu14,His17,His35]-pramlintide (peptide)
peptide: {C18 diacid-γGlu}-EKCNTATCATQRLAEFLHHSSNNFGPILPPTNVGSHTY-NH2
modifications: disulfide 3-8
SMILES: CC[C@H](C)[C@H](NC(=O)[C@@H]1CCCN1C(=O)CNC(=O)[C@H](Cc1ccccc1)NC(=O)[C@H](CC(N)=O)NC(=O)[C@H](CC(N)=O)NC(=O)[C@H](CO)NC(=O)[C@H](CO)NC(=O)[C@H](Cc1c[nH]cn1)NC(=O)[C@H](Cc1c[nH]cn1)NC(=O)[C@H](CC(C)C)NC(=O)[C@H](Cc1ccccc1)NC(=O)[C@H](CCC(=O)O)NC(=O)[C@H](C)NC(=O)[C@H](CC(C)C)NC(=O)[C@H](CCCNC(=N)N)NC(=O)[C@H](CCC(N)=O)NC(=O)[C@@H](NC(=O)[C@H](C)NC(=O)[C@@H]1CSSC[C@H](NC(=O)[C@H](CCCCN)NC(=O)[C@H](CCC(=O)O)NC(=O)CC[C@H](NC(=O)CCCCCCCCCCCCCCCCC(=O)O)C(=O)O)C(=O)N[C@@H](CC(N)=O)C(=O)N[C@@H]([C@@H](C)O)C(=O)N[C@@H](C)C(=O)N[C@@H]([C@@H](C)O)C(=O)N1)[C@@H](C)O)C(=O)N[C@@H](CC(C)C)C(=O)N1CCC[C@H]1C(=O)N1CCC[C@H]1C(=O)N[C@H](C(=O)N[C@@H](CC(N)=O)C(=O)N[C@H](C(=O)NCC(=O)N[C@@H](CO)C(=O)N[C@@H](Cc1c[nH]cn1)C(=O)N[C@H](C(=O)N[C@@H](Cc1ccc(O)cc1)C(N)=O)[C@@H](C)O)C(C)C)[C@@H](C)O
B2: N-alpha-{(S)-4-Carboxy-4-[(S)-4-Carboxy-4-(17-carboxyheptadecanoylamino)butyrylamino]butyryl}-[des1,Glu14,His17]-pramlintide (peptide)
peptide: {C18 diacid-γGlu-γGlu}-CNTATCATQRLAEFLHHSSNNFGPILPPTNVGSNTY-NH2
modifications: disulfide 1-6
SMILES: CC[C@H](C)[C@H](NC(=O)[C@@H]1CCCN1C(=O)CNC(=O)[C@H](Cc1ccccc1)NC(=O)[C@H](CC(N)=O)NC(=O)[C@H](CC(N)=O)NC(=O)[C@H](CO)NC(=O)[C@H](CO)NC(=O)[C@H](Cc1c[nH]cn1)NC(=O)[C@H](Cc1c[nH]cn1)NC(=O)[C@H](CC(C)C)NC(=O)[C@H](Cc1ccccc1)NC(=O)[C@H](CCC(=O)O)NC(=O)[C@H](C)NC(=O)[C@H](CC(C)C)NC(=O)[C@H](CCCNC(=N)N)NC(=O)[C@H](CCC(N)=O)NC(=O)[C@@H](NC(=O)[C@H](C)NC(=O)[C@@H]1CSSC[C@H](NC(=O)CC[C@H](NC(=O)CC[C@H](NC(=O)CCCCCCCCCCCCCCCCC(=O)O)C(=O)O)C(=O)O)C(=O)N[C@@H](CC(N)=O)C(=O)N[C@@H]([C@@H](C)O)C(=O)N[C@@H](C)C(=O)N[C@@H]([C@@H](C)O)C(=O)N1)[C@@H](C)O)C(=O)N[C@@H](CC(C)C)C(=O)N1CCC[C@H]1C(=O)N1CCC[C@H]1C(=O)N[C@H](C(=O)N[C@@H](CC(N)=O)C(=O)N[C@H](C(=O)NCC(=O)N[C@@H](CO)C(=O)N[C@@H](CC(N)=O)C(=O)N[C@H](C(=O)N[C@@H](Cc1ccc(O)cc1)C(N)=O)[C@@H](C)O)C(C)C)[C@@H](C)O
B3: N-alpha-[(S)-4-Carboxy-4-(17-carboxyheptadecanoylamino)butyryl]-His-[His1,Glu14,His17]-pramlintide (peptide)
peptide: {C18 diacid-γGlu}-HHCNTATCATQRLAEFLHHSSNNFGPILPPTNVGSNTY-NH2
modifications: disulfide 3-8
SMILES: CC[C@H](C)[C@H](NC(=O)[C@@H]1CCCN1C(=O)CNC(=O)[C@H](Cc1ccccc1)NC(=O)[C@H](CC(N)=O)NC(=O)[C@H](CC(N)=O)NC(=O)[C@H](CO)NC(=O)[C@H](CO)NC(=O)[C@H](Cc1c[nH]cn1)NC(=O)[C@H](Cc1c[nH]cn1)NC(=O)[C@H](CC(C)C)NC(=O)[C@H](Cc1ccccc1)NC(=O)[C@H](CCC(=O)O)NC(=O)[C@H](C)NC(=O)[C@H](CC(C)C)NC(=O)[C@H](CCCNC(=N)N)NC(=O)[C@H](CCC(N)=O)NC(=O)[C@@H](NC(=O)[C@H](C)NC(=O)[C@@H]1CSSC[C@H](NC(=O)[C@H](Cc2c[nH]cn2)NC(=O)[C@H](Cc2c[nH]cn2)NC(=O)CC[C@H](NC(=O)CCCCCCCCCCCCCCCCC(=O)O)C(=O)O)C(=O)N[C@@H](CC(N)=O)C(=O)N[C@@H]([C@@H](C)O)C(=O)N[C@@H](C)C(=O)N[C@@H]([C@@H](C)O)C(=O)N1)[C@@H](C)O)C(=O)N[C@@H](CC(C)C)C(=O)N1CCC[C@H]1C(=O)N1CCC[C@H]1C(=O)N[C@H](C(=O)N[C@@H](CC(N)=O)C(=O)N[C@H](C(=O)NCC(=O)N[C@@H](CO)C(=O)N[C@@H](CC(N)=O)C(=O)N[C@H](C(=O)N[C@@H](Cc1ccc(O)cc1)C(N)=O)[C@@H](C)O)C(C)C)[C@@H](C)O
B4: N-alpha-[(S)-4-Carboxy-4-(17-carboxyheptadecanoylamino)butyryl]-[Glu14,Arg17]-pramlintide (peptide)
peptide: {C18 diacid-γGlu}-KCNTATCATQRLAEFLRHSSNNFGPILPPTNVGSNTY-NH2
modifications: disulfide 2-7
SMILES: CC[C@H](C)[C@H](NC(=O)[C@@H]1CCCN1C(=O)CNC(=O)[C@H](Cc1ccccc1)NC(=O)[C@H](CC(N)=O)NC(=O)[C@H](CC(N)=O)NC(=O)[C@H](CO)NC(=O)[C@H](CO)NC(=O)[C@H](Cc1c[nH]cn1)NC(=O)[C@H](CCCNC(=N)N)NC(=O)[C@H](CC(C)C)NC(=O)[C@H](Cc1ccccc1)NC(=O)[C@H](CCC(=O)O)NC(=O)[C@H](C)NC(=O)[C@H](CC(C)C)NC(=O)[C@H](CCCNC(=N)N)NC(=O)[C@H](CCC(N)=O)NC(=O)[C@@H](NC(=O)[C@H](C)NC(=O)[C@@H]1CSSC[C@H](NC(=O)[C@H](CCCCN)NC(=O)CC[C@H](NC(=O)CCCCCCCCCCCCCCCCC(=O)O)C(=O)O)C(=O)N[C@@H](CC(N)=O)C(=O)N[C@@H]([C@@H](C)O)C(=O)N[C@@H](C)C(=O)N[C@@H]([C@@H](C)O)C(=O)N1)[C@@H](C)O)C(=O)N[C@@H](CC(C)C)C(=O)N1CCC[C@H]1C(=O)N1CCC[C@H]1C(=O)N[C@H](C(=O)N[C@@H](CC(N)=O)C(=O)N[C@H](C(=O)NCC(=O)N[C@@H](CO)C(=O)N[C@@H](CC(N)=O)C(=O)N[C@H](C(=O)N[C@@H](Cc1ccc(O)cc1)C(N)=O)[C@@H](C)O)C(C)C)[C@@H](C)O
B5: N-alpha-[(S)-4-Carboxy-4-(19-carboxynonadecanoylamino)butyryl]-[Glu10,Glu14,His17]-pramlintide (peptide)
peptide: {C20 diacid-γGlu}-KCNTATCATERLAEFLHHSSNNFGPILPPTNVGSNTY-NH2
modifications: disulfide 2-7
SMILES: CC[C@H](C)[C@H](NC(=O)[C@@H]1CCCN1C(=O)CNC(=O)[C@H](Cc1ccccc1)NC(=O)[C@H](CC(N)=O)NC(=O)[C@H](CC(N)=O)NC(=O)[C@H](CO)NC(=O)[C@H](CO)NC(=O)[C@H](Cc1c[nH]cn1)NC(=O)[C@H](Cc1c[nH]cn1)NC(=O)[C@H](CC(C)C)NC(=O)[C@H](Cc1ccccc1)NC(=O)[C@H](CCC(=O)O)NC(=O)[C@H](C)NC(=O)[C@H](CC(C)C)NC(=O)[C@H](CCCNC(=N)N)NC(=O)[C@H](CCC(=O)O)NC(=O)[C@@H](NC(=O)[C@H](C)NC(=O)[C@@H]1CSSC[C@H](NC(=O)[C@H](CCCCN)NC(=O)CC[C@H](NC(=O)CCCCCCCCCCCCCCCCCCC(=O)O)C(=O)O)C(=O)N[C@@H](CC(N)=O)C(=O)N[C@@H]([C@@H](C)O)C(=O)N[C@@H](C)C(=O)N[C@@H]([C@@H](C)O)C(=O)N1)[C@@H](C)O)C(=O)N[C@@H](CC(C)C)C(=O)N1CCC[C@H]1C(=O)N1CCC[C@H]1C(=O)N[C@H](C(=O)N[C@@H](CC(N)=O)C(=O)N[C@H](C(=O)NCC(=O)N[C@@H](CO)C(=O)N[C@@H](CC(N)=O)C(=O)N[C@H](C(=O)N[C@@H](Cc1ccc(O)cc1)C(N)=O)[C@@H](C)O)C(C)C)[C@@H](C)O
B6: N-alpha-[(S)-4-Carboxy-4-(19-carboxynonadecanoylamino)butyryl]-[Glu14,Arg17]-pramlintide (peptide)
peptide: {C20 diacid-γGlu}-KCNTATCATQRLAEFLRHSSNNFGPILPPTNVGSNTY-NH2
modifications: disulfide 2-7
SMILES: CC[C@H](C)[C@H](NC(=O)[C@@H]1CCCN1C(=O)CNC(=O)[C@H](Cc1ccccc1)NC(=O)[C@H](CC(N)=O)NC(=O)[C@H](CC(N)=O)NC(=O)[C@H](CO)NC(=O)[C@H](CO)NC(=O)[C@H](Cc1c[nH]cn1)NC(=O)[C@H](CCCNC(=N)N)NC(=O)[C@H](CC(C)C)NC(=O)[C@H](Cc1ccccc1)NC(=O)[C@H](CCC(=O)O)NC(=O)[C@H](C)NC(=O)[C@H](CC(C)C)NC(=O)[C@H](CCCNC(=N)N)NC(=O)[C@H](CCC(N)=O)NC(=O)[C@@H](NC(=O)[C@H](C)NC(=O)[C@@H]1CSSC[C@H](NC(=O)[C@H](CCCCN)NC(=O)CC[C@H](NC(=O)CCCCCCCCCCCCCCCCCCC(=O)O)C(=O)O)C(=O)N[C@@H](CC(N)=O)C(=O)N[C@@H]([C@@H](C)O)C(=O)N[C@@H](C)C(=O)N[C@@H]([C@@H](C)O)C(=O)N1)[C@@H](C)O)C(=O)N[C@@H](CC(C)C)C(=O)N1CCC[C@H]1C(=O)N1CCC[C@H]1C(=O)N[C@H](C(=O)N[C@@H](CC(N)=O)C(=O)N[C@H](C(=O)NCC(=O)N[C@@H](CO)C(=O)N[C@@H](CC(N)=O)C(=O)N[C@H](C(=O)N[C@@H](Cc1ccc(O)cc1)C(N)=O)[C@@H](C)O)C(C)C)[C@@H](C)O

Columns and labels:
[1] = molecular target: T1, human calcitonin (a) receptor; experiment: cell-based or functional assay
[2] = molecular target: T2, human amylin 3(a) receptor (human …); experiment: cell-based or functional assay

Row | Binder | CTa receptor human EC50 [1] | Amylin receptor human EC50 [2]
1 | B1 | 0.169 nM | 0.102 nM
2 | B2 | 0.527 nM | 0.151 nM
3 | B3 | 0.258 nM | 0.059 nM
4 | B4 | 0.6 nM | 0.061 nM
5 | B5 | 0.2 nM | 0.13 nM
6 | B6 | 0.459 nM | 0.101 nM
